Results taken from patent US6140466, “Zinc finger protein derivatives and methods therefor” (The Scripps Research Institute).

Assays:
TFIIIA zf1-3 = TFIIIA zf1-3 (UniProt P03001 P03001:33-123); assay: EMSA; ambient temperature; complete 23 bp sequence not given; conditions: tags: first three zinc fingers of TFIIIA; label: 32P
Excerpt: An experiment was designed to determine whether the binding of this polypeptide to its recognition sequence, placed close to an active RNA polymerase promoter, would inhibit the activity of that promoter in vitro. The following experiments were done to provide such a test system. A 23 bp oligonucleotide (Liao, et al., 1992, supra) containing the 13 bp recognition sequence for zf1–3 was cloned into the polylinker region of plasmid pBluescript SK+ (Stratagene, La Jolla, Calif.), near the promoter sequence for T7 RNA polymerase. The parent plasmid was digested with the restriction enzyme EcoRV and, after dephosphorylation with calf intestinal alkaline phosphatase, the phosphorylated 23 bp oligonucleotide was inserted by ligation with T4 DNA ligase. The ligation product was used for transformation of DH5α *E. coli* cells. Clones harboring 23 bp inserts were identified by restriction digestion of miniprep DNA. The success of cloning was also verified by DNA sequence analysis. The DNA binding activity of the preparation of recombinant zf1–3 was also determined by gel mobility shift analysis with a 56 bp radiolabeled EcoRI/XhoI restriction fragment derived from the cone containing the binding site for zf1–3 and with the radiolabeled 23 bp oligonucleotide. Gel shift assays were done as described (Liao, et al., supra; Fried, et al., *Nucl. Acids., Res.,* 9:6505, 1981). […]

(C7 finger)x3 = (C7 finger)x3 (synthetic (Zif268 variant)); assay: SPR; conditions: hairpin
Zif268 fingers 1-3 = Zif268 fingers 1-3 (Mus musculus, UniProt P08046 SEQ:1-91); assay: SPR; zinc buffer (90 uM ZnCl2, 5 mM DTT); Kd from kon/koff
Zif268 variant C7 = Zif268 variant C7 (synthetic (Zif268 variant, mouse), UniProt P08046); assay: SPR; 5-fold slower dissociation; Kd in FIG. 11 only
MBP-C7 = MBP-C7 (synthetic (Zif268 variant, mouse), UniProt P08046); assay: EMSA; 0.1 mM ZnCl2, RT

Chain of TFIIIA zf1-3 (P03001 33-123, one chain of several): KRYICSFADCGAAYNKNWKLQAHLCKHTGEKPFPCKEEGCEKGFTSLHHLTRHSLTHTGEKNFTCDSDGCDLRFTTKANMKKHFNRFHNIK
Chain of (C7 finger)x3 (synthetic (Zif268 variant)) (chain, as listed by the source): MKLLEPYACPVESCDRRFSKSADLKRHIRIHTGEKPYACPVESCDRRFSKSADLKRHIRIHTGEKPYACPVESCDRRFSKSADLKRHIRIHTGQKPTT

B1: zf1-3 binding site oligo (23 bp containing 13 bp site) (dsDNA)
DNA 1: TGGATGGGAGACC
DNA 2: GGTCTCCCATCCA
binding result (TFIIIA zf1-3): binds

CCTCGCCGCCGCGGGTTTTCCCGCGCCCCCGAGG (structured_DNA) [GCG-GCG-GCG hairpin]
Kd ((C7 finger)x3): 9 nM

CCTGCGTGGGCGCCCTTTTGGGCGCCCACGCAGG (structured_DNA) [Z268N consensus hairpin]
Kd (Zif268 fingers 1-3): 6.5 nM
binding signal (Zif268 variant C7): 13 fold tighter than Zif268

B2: C7 site probe (dsDNA)
DNA 1: GATGTATGTAGCGTGGGCGTAAGTAATGC
DNA 2: GCATTACTTACGCCCACGCTACATACATC
Kd (MBP-C7): 31.8 nM
